# Measurements: the nanobody polyreactivity screen of Harvey et al. (2022)
# Assay: yeast display, Sf9 membrane polyspecificity reagent, FACS + sequencing; frameworks hold sequencing errors
# Outline: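 Galactose induction of a Saccharomyces cerevisiae BJ5465 synthetic nanobody display library ran 36–48 hours. The cells were then stained for 1 hour at 4 °C with 10% biotinylated, detergent-solubilized Sf9 membrane reagent, pulled down on streptavidin microbeads and FACS-sorted into low and high (top ~1%) gates on expression and reagent-binding fluorescence. Labels for polyreactivity follow the gate of origin.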
sequence,measurement,value
QVQLVESGGGLVQAGGSLRLSCAASGLTFQSYVMGWYRPAPGKERELVAAISWSGTRTYFADSVKGRFTISRDNAKNTVYLQMYSLKPEDTAVYSCAADFYTWYEERYWSYNYWGQGTQVTVSS,polyreactivity (PSR sort gate),high polyreactivity
QVQLVESGGGLVQAGGSLRLSCAASGIIFRYYAMGWYRQAPGKEREFVAAITWRGTSTYYADSVKGRFTISRDNAKNTVYLQMNSLKPEDTAVYYCATATAFPYYGLDYWGQGNQVTVSS,polyreactivity (PSR sort gate),high polyreactivity
QVQLVESGGGLVHAGGSLRLSCAASGFIFARYAMGWYRQAPGKERELVAAINLSGGSTYYADSVKGRFTISRDNAKNTVYLQMNSLKPEDTAVYYCAATDPPYDAFEAKIDYQDFDYWGQGTQVTVSS,polyreactivity (PSR sort gate),low polyreactivity
QVQLVESGGGLVQAGGSLRLSCAASGNTFIYYGMGWYRQAPGKERELVAAITWSGGSTYYADSVKGRFTISRDNAKNTVYLQMNSLKPEETAVYYCAKFTHNYYYWGQGTQVTVSS,polyreactivity (PSR sort gate),high polyreactivity
QVQLVESGGGLVQAGGSLRLSCAASGRTLFYYTMGWYRQAPGKERELVAAITTGGRTYYADSVKGRFTISRDNAKNTVYLQMNSLKPEDTAVYYCAAHTYYYPVGFNYWGQGTQVTVSS,polyreactivity (PSR sort gate),low polyreactivity
QVQLVESGGGLVQAGGSLRLSCAASAFIFISYAMGLYRQAAGKERELVAAISSSGVSTYSADSVKGRFTISRDNAKNTVYLQMNSLKPEDTAVYYCAARQQVRLRQGPLYYYWGQGTQVTVSS,polyreactivity (PSR sort gate),high polyreactivity
QVQLVESGGGLVQAGGSLRLSCAASGRIFYRYAMGWYRQAPGKERELVATITSGGGTHYADSVKGRFTISRDNAKNTVYLQMNSLKPEDTAVYYCAAVQWYGYPYYSWGQGTQVTVSS,polyreactivity (PSR sort gate),low polyreactivity
QVQLVESGGGLVQAGGSLRLSCAASVSIFGYYAMGWYRPAPGKEMELVAAISSGGNTNYADSVKGRFTISRDNAKNTVYLQMISLKQEDTAVYYCATRARYKRIRYDYWGQGTQVTVSS,polyreactivity (PSR sort gate),high polyreactivity
QVQLVESGGGLVQAGGSLRLSCAASGGTLDVYAMGWYRQAPGKEREFVAAISWSGGRTYYADSVKGRFTISRDNAKNTVYLQMHSLKPEDTAVYYCATRDRAGYYYWGQGTQVTVSS,polyreactivity (PSR sort gate),high polyreactivity
QVQLVESGGGLVQAGGTLRLSCAASGITFVQYAMGWYRQAPGKETELVASITRRGGSTYYADSVKGRFTISRDNAKNTVYLQMNSLKQEDTAVYYCAARWSAWRGYIFDYWGQGTQVTVSS,polyreactivity (PSR sort gate),high polyreactivity
QVQLVDSGGGLVQAGGSLRVSCAASGIIFYYNAMGWYRQAPGKEREFVASISSRGGSTYYADSVKGRFTISRDNSKNTVYLQMNSLKPEDTAVYYCAAAFDWRRQRYNYWGQGTQVTVTS,polyreactivity (PSR sort gate),high polyreactivity
QVQLVESGGGLVQAGGSLRLSSAASGRIFSRYAMGWYRQAPGKERELVAAITQSGTSTYYADSVKGRFTISRDNAKNTVYLQMNSLKPEDTAVYYCNAYRQYRYDYWGQGSQVTVSS,polyreactivity (PSR sort gate),low polyreactivity
QVQLVESGGGLVQAGGSLRLSCAASGLILQYYVMGWYIQAPGKERELVAAITRSGGGTYYADSVKGRFTISRDNAKNTVYLQMNSLKPEDSAVYYCAAQRQYGKFDYWGQGTQVTVSS,polyreactivity (PSR sort gate),high polyreactivity
QVQLVESGGGLVQAGGSLRLSCAASGSIFVKYAMGWYRQAPGKERELVAAISRRGGSTNYADSVKGRFTISRDNAKNTVYLQMNSLKPEDTAVYYCNAQTVTSYGGDSWGQGTQVTVSS,polyreactivity (PSR sort gate),high polyreactivity
QVQLVESGGGLVQAGGSLRLSCAASGSTFYGYAMGWYRQAPGKERELVAGITSAGSTYYADSVKGRFTISRDNAKNTVYLQMNSLKPEDTAVYYCAYHGAGYYYWGQGTQVTVSS,polyreactivity (PSR sort gate),high polyreactivity
QVQLVESGGGLVQAGGSLRLSCAASGRTFETNAMGWYRQAPGKERELVAAISRSGGSTRYADSVKGRFTISRDNAKNTVYLQMNRLKPEDTAVYYCAVRVGLGGGYWGQGTQVTVSS,polyreactivity (PSR sort gate),high polyreactivity
QVQLVESGGGLDQAGGSLRLICAASGFTYPIYAMGWYRQAPGKERELVAAITTRGGRTYYADSVKGRFTISRDNAKNTVYLQMNSLKAEDTAVYYCNALGYAYRLWFGYWGEGTQVTVSS,polyreactivity (PSR sort gate),high polyreactivity
QVQHVESGGGLVQAGGSLRLSCAASGRTFRKNAMGWYRQAPGKERELVAAITGSSGTTYYADSVKGRFTISRDNAKNTVYLQMNSLKPEDTAVYYCATTVGDPGRRYYYWGQGTQVTVSS,polyreactivity (PSR sort gate),high polyreactivity
QVHLVESGGGLVQAGGSLRLSCAASGRTYIRNAMGWYRQAPGKERELVAAISSRGGRTYYADSVKGRFTISRDNAKNTVYLQMNSLKPEDTAVYYCAADFTYKLDGYDYWGQGTQVTVSS,polyreactivity (PSR sort gate),high polyreactivity
QVQLVESGGGLVQAGGSLRLTWAASGFILGYYAMGWYRQAPGKERELLPGISRSGGSTYYADSVKGRYTISRDNAKNTVYLQMNSLKPEDTSVYYCAKYPPYYTAYGWKYVYWGQGTQVTLSS,polyreactivity (PSR sort gate),high polyreactivity
QVQLVESGGGLVQAGGSLRLSCAASGSTFTWNAMGWYRQAPGKERELVAAISGDGGSTYYADSVKGRFTISRDNAKNTVYLQMNSLKPEDTAVYYCAASSAHIYSYRYNYWGQGTQVTVSS,polyreactivity (PSR sort gate),low polyreactivity
QVQLLESGGGLVQAGGSLRLSCAASGSPFYYYARGWYRQAPGKERELVARITYGGSRTYYADSVKGRFTISRDNAKYTVYLQMNSLKPEDTAVYYCNAGRVLYGYYLYDYWGQGTQLTVSS,polyreactivity (PSR sort gate),high polyreactivity
QVQLVESGGGLVQAGGSLRLSCAASGSTLQVYARGWYRQAPGKERELVAASSKSGGRTYYADSVKGRFTISRDNAKNTVYLQMNSLKPEDTAVYYCAADVGTAQSTYGYWGQGTQVTVSS,polyreactivity (PSR sort gate),high polyreactivity
QVQLVDSGGGLVQAGGSLRITCAASVLTFRRNPMGWYRQAPGKARELLGTITSGGSTNYADTVKGRFTISRDNAKNTVYLQMNSLKPEDTAVYYCNSVHLRIMYYWGQGTQVTVSS,polyreactivity (PSR sort gate),high polyreactivity
QVQLVESGGGLVQAGGSLRLSCAASGFTFYFNAMGWYRQAPGKERELVAGITSGGSTNYADSVKGRFTISRDNAKNTVYLQMNSLKPEDTAVYYCATDLLNNVDYDYWGQGTQVTVSS,polyreactivity (PSR sort gate),low polyreactivity
QVQLVESGGGLVQAGGSLRLSCAASGRTFITNAMGRNRQAPGKERELVARISSDGSTYYADSVKGRFTISRDNAKNTVYLQMNSLKPEDTAVYYCNKEFLRRQLFTFWHLGGYWGQVTQVTVSS,polyreactivity (PSR sort gate),low polyreactivity
QVQLVESGGCLVQAGGSLRLSCAASGSIFIYYAMGWYRQAPGKERELVATISVRGGSTYYADSVKGRFTISRDNAKNTVYLQMNSLKPEDTAVYYCNAVTSGTTKSAYDYWGQGTQVTVSS,polyreactivity (PSR sort gate),high polyreactivity
QVQLVESGGGLVQAGGSLRLSCAASGYIIGRYVMGWYRQAPGKERELVAAITASGGSTYYADSVKGRFTISRDNAKNTVYLQMNSLKPEDTAVYYCAAPTYGRFLRNDYWGQGTQVTVSS,polyreactivity (PSR sort gate),high polyreactivity
QVQLVESGGGLVQAGGSLRLSCAASGCIFRYYAKGWYRQPPGKERELVPVISSNGARTSYADSVKGRFTISRDNATYTVYLQMNSLKPEDTAVYYCNARAWSRFPPVGHDDWGQGTQVTVSS,polyreactivity (PSR sort gate),high polyreactivity
QVQLVESGGGLVQAGGSLRLSCAASGSTFSLYAMGWYRQAPGKERELVAAINSGTSTYYADSVKGRFTISRDNAKNTVYLQMNSLKPEDTAVYYCAADGYPLQLYNYWGQGTQVTVSS,polyreactivity (PSR sort gate),low polyreactivity
QVQHVESGGGLVQAGGSLRLSCAASGFTFHRYAMGWYRQAAGKERELVARISRSAGSTYYADSVKGRFTISRDNAKNTVYLQMNSLKPEDTAVYYCAAAQRRYGRGYGYWGQGTQVTVSS,polyreactivity (PSR sort gate),high polyreactivity
QVQLVESGGGLVKAGGSLRLSSAASGSTFERYAMGWYRQAPGNERELVAAINWSGGGTYYADSVKGRFTISRDTAKNTVYLQMNSLKPEDTAVYYCAADSGTVVFSLWWYEYYYWGQGNQVTVSS,polyreactivity (PSR sort gate),low polyreactivity
QVQLVESGGGLVQAGGSLRLSCAASGRTFFPYAMGWYRQAPGKERELVAAITRGGSTNYADSVKGRFTISRDNAKNTVYLQINSLKPEDTAVSYCATVVRYSNARGDYWGQGTQVTVSS,polyreactivity (PSR sort gate),low polyreactivity
QVQLVESGGGLVQAGGSLRLSCAASGRTFYDNTMGWYRQAPGKERELVAAITRNGGSTYYADSVKGRFTISRDNAKNTVYLQMNSLKPEDTAVYYCAVYVAYLYSYYYWGQGTQVSVSS,polyreactivity (PSR sort gate),low polyreactivity
QVQLVESGGGLVQAGGSLRLSCAASGSIFQFYAMGWYRQAPGKERELVAVITTSGVSTYYADSVKGRFTISRDNAKNTVYLQMNSLKPEATAVYYCAADDYYLAGDYWGQGTQVTVSS,polyreactivity (PSR sort gate),low polyreactivity
QVQLVESGGGLVQAGGSLRLSCAASGIIFYYNAMGWYRQAPGKEREYVASISSRGGSTYYADSVKGRFTISRDNAKNTVYLQMKSLKPEDPAVYYCAAAFDWRRQRYNYWGHGTQVTVSS,polyreactivity (PSR sort gate),high polyreactivity
QVQLVESGGGLVQAGGSLRLSCAASGSIFRIYAMGWYRQAPGKEREFVAAISSRGGRTYYADSVKGRFTISRDNAKNTVYLQMNSLKPEDTAVYYCNARATRGSYYEYEYWGQGTQVTVSS,polyreactivity (PSR sort gate),high polyreactivity
QVQLVESGGGLDQAGGRLRLSCAASGITFGRNTMGWYRQSPGKERELVAAIDSGGNTYADSVKGRFTISRDNAKNTVYLQMNSLKPEDTAVYYCAVDGGEFSSYGYWGQGTQVTVSS,polyreactivity (PSR sort gate),low polyreactivity
QVQLVESGGGLVQAGGSLRLSCDASGRIFYANAIGWYRQAPGKEREFVAAITRSGGSTYYADSVKGRFTISRDNAKNTVYLQMNSLKPEETAVYYCAAQGGDVYGWRYYYWGQGTQVTVSS,polyreactivity (PSR sort gate),low polyreactivity
QVQLVESGGGLVQAGGSLRLSCAATGSIFKWYAMGWYRQEPGKERELVSAISKSGGSTYYADSVKGRFTISRDNAKNTVYLQINSLKPEDTAVYYCNAVYIGSRRRYEYDYWGEGTQVTVSS,polyreactivity (PSR sort gate),high polyreactivity
QVQLVESGGGLVQAGGSLRLSCAASGFTFSDYAMGWYRQAPGKERELVAAISTRGSSTYYADSVKGRFTISRDNAKNTVYLQMNSLKPEDTAVYYCNAVGSYSGYYYWGQGTQVTVSS,polyreactivity (PSR sort gate),high polyreactivity
QVQLVESGGGLVQAGGSLRLSCAASGSIFYENAMGWYRKAPGKEREFVATIDLIGDRTYYADSVKGRFTISRDNAKNTVYLQMNSLKPEDTAVYYCAAERVGVFFRYDYWGQGTQVTVSS,polyreactivity (PSR sort gate),low polyreactivity
QVQLVESGGGVVQAGGSLRLSCAASGFTFAQYAMGWYRQAPGKERELVATITRGGITYYADSVKGRFTISRDNAKNTVYLQMNSLKPEDTAVYYCAARVVPPYSRRDDYWGQGTQVTVSS,polyreactivity (PSR sort gate),high polyreactivity
